Measurements reported in IntAct's records for PubMed 35512704.

B1: Speckle-type POZ protein (Homo sapiens), O43791 (parent)
chain: MSRVPSPPPPAEMSSGPVAESWCYTQIKVVKFSYMWTINNFSFCREEMGEVIKSSTFSSGANDKLKWCLRVNPKGLDEESKDYLSLYLLLVSCPKSEVRAKFKFSILNAKGEETKAMESQRAYRFVQGKDWGFKKFIRRDFLLDEANGLLPDDKLTLFCEVSVVQDSVNISGQNTMNMVKVPECRLADELGGLWENSRFTDCCLCVAGQEFQAHKAILAARSPVFSAMFEHEMEESKKNRVEINDVEPEVFKEMMCFIYTGKAPNLDKMADDLLAAADKYALERLKVMCEDALCSNLSVENAAEILILADLHSADQLKTQAVDFINYHASDVLETSGWKSMVVSHPHLVAEAYRSLASAQCPFLGPPRKRLKQS

Variants of: B1
Settings: with mybb_human MYBL2, P10244

| Variant | effect of a mutation on the interaction |
| --- | --- |
| F133L | with no effect |

Variants of: B1
Settings: with myc_human MYC

| Variant | effect of a mutation on the interaction |
| --- | --- |
| F133L | with no effect |

Variants of: B1
Settings: with mycn_human MYCN

| Variant | effect of a mutation on the interaction |
| --- | --- |
| F133L | with no effect |

Variants of: B1
Settings: with ncoa3_human NCOA3, Q9Y6Q9

| Variant | effect of a mutation on the interaction |
| --- | --- |
| F133L | with no effect |

Variants of: B1
Settings: with ikba_human NFKBIA

| Variant | effect of a mutation on the interaction |
| --- | --- |
| F133L | with no effect |

Variants of: B1
Settings: with notc2_human NOTCH2, Q04721

| Variant | effect of a mutation on the interaction |
| --- | --- |
| F133L | with no effect |

Variants of: B1
Settings: with nox1_human NOX1, Q9Y5S8

| Variant | effect of a mutation on the interaction |
| --- | --- |
| F133L | with no effect |

Variants of: B1
Settings: with ntrk2_human NTRK2, Q16620

| Variant | effect of a mutation on the interaction |
| --- | --- |
| F133L | with no effect |

Variants of: B1
Settings: with ntrk3_human NTRK3, Q16288

| Variant | effect of a mutation on the interaction |
| --- | --- |
| F133L | with no effect |

Variants of: B1
Settings: with pak3_human PAK3, O75914

| Variant | effect of a mutation on the interaction |
| --- | --- |
| F133L | with no effect |

Variants of: B1
Settings: with prkn_human PRKN

| Variant | effect of a mutation on the interaction |
| --- | --- |
| F133L | with no effect |

Variants of: B1
Settings: with pax5_human PAX5, Q02548

| Variant | effect of a mutation on the interaction |
| --- | --- |
| F133L | with no effect |

Variants of: B1
Settings: with pcbp1_human PCBP1, Q15365

| Variant | effect of a mutation on the interaction |
| --- | --- |
| F133L | with no effect |

Variants of: B1
Settings: with pdcd1_human PDCD1, Q15116

| Variant | effect of a mutation on the interaction |
| --- | --- |
| F133L | with no effect |

Variants of: B1
Settings: with pgfrb_human PDGFRB

| Variant | effect of a mutation on the interaction |
| --- | --- |
| F133L | with no effect |

Variants of: B1
Settings: with pdk1_human PDK1, Q15118

| Variant | effect of a mutation on the interaction |
| --- | --- |
| F133L | with no effect |

Variants of: B1
Settings: with PIK3C2B

| Variant | effect of a mutation on the interaction |
| --- | --- |
| F133L | with no effect |

Variants of: B1
Settings: with pk3ca_human PIK3CA

| Variant | effect of a mutation on the interaction |
| --- | --- |
| F133L | with no effect |

Variants of: B1
Settings: with pk3cg_human PIK3CG

| Variant | effect of a mutation on the interaction |
| --- | --- |
| F133L | with no effect |

Variants of: B1
Settings: with p85b_human PIK3R2, O00459

| Variant | effect of a mutation on the interaction |
| --- | --- |
| F133L | with no effect |

Variants of: B1
Settings: with dpod1_human POLD1, P28340

| Variant | effect of a mutation on the interaction |
| --- | --- |
| F133L | with no effect |

Variants of: B1
Settings: with dpoe1_human POLE

| Variant | effect of a mutation on the interaction |
| --- | --- |
| F133L | with no effect |

Variants of: B1
Settings: with ppard_human PPARD

| Variant | effect of a mutation on the interaction |
| --- | --- |
| F133L | with no effect |

Variants of: B1
Settings: with prdm1_human PRDM1, O75626

| Variant | effect of a mutation on the interaction |
| --- | --- |
| F133L | with no effect |

Variants of: B1
Settings: with prex2_human PREX2, Q70Z35

| Variant | effect of a mutation on the interaction |
| --- | --- |
| F133L | with no effect |

Variants of: B1
Settings: with aapk2_human PRKAA2, P54646

| Variant | effect of a mutation on the interaction |
| --- | --- |
| F133L | with no effect |

Variants of: B1
Settings: with prss8_human PRSS8, Q16651

| Variant | effect of a mutation on the interaction |
| --- | --- |
| F133L | with no effect |

Variants of: B1
Settings: with tf65_human RELA

| Variant | effect of a mutation on the interaction |
| --- | --- |
| F133L | with no effect |

Variants of: B1
Settings: with rictr_human RICTOR

| Variant | effect of a mutation on the interaction |
| --- | --- |
| F133L | with no effect |

Variants of: B1
Settings: with rnf43_human RNF43, Q68DV7
Sequence of rnf43_human RNF43, Q68DV7 (Q68DV7 whole entry): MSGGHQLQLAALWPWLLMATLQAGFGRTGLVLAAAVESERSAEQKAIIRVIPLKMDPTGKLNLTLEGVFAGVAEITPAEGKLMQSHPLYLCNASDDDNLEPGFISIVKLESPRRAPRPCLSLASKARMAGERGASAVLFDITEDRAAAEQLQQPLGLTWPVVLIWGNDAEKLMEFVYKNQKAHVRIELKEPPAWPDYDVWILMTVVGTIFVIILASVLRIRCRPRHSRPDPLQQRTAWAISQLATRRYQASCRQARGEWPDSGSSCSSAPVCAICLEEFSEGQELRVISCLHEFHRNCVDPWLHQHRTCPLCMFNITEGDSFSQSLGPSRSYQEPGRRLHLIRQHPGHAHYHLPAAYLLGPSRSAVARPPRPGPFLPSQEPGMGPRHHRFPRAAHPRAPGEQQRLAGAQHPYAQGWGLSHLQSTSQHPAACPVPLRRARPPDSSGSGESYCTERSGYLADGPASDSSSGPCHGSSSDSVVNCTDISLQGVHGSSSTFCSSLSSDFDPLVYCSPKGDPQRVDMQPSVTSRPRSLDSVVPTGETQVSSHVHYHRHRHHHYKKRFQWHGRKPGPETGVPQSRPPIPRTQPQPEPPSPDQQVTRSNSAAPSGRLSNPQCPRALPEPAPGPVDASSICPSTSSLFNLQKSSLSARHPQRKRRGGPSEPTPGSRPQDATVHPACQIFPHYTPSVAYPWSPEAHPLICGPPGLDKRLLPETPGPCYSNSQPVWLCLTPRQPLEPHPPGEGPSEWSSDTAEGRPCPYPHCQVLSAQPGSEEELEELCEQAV

| Variant | effect of a mutation on the interaction |
| --- | --- |
| F133L | with no effect |

Variants of: B1
Settings: with ros1_human ROS1, P08922

| Variant | effect of a mutation on the interaction |
| --- | --- |
| F133L | with no effect |

Variants of: B1
Settings: with rl11_human RPL11, P62913

| Variant | effect of a mutation on the interaction |
| --- | --- |
| F133L | with no effect |

Variants of: B1
Settings: with rl5_human RPL5, P46777

| Variant | effect of a mutation on the interaction |
| --- | --- |
| F133L | with no effect |

Variants of: B1
Settings: with rs15_human RPS15, P62841

| Variant | effect of a mutation on the interaction |
| --- | --- |
| F133L | with no effect |

Variants of: B1
Settings: with rptor_human RPTOR

| Variant | effect of a mutation on the interaction |
| --- | --- |
| F133L | with no effect |

Variants of: B1
Settings: with rxra_human RXRA

| Variant | effect of a mutation on the interaction |
| --- | --- |
| F133L | with no effect |

Variants of: B1
Settings: with sdha_human SDHA

| Variant | effect of a mutation on the interaction |
| --- | --- |
| F133L | with no effect |

Variants of: B1
Settings: with setbp_human SETBP1, Q9Y6X0

| Variant | effect of a mutation on the interaction |
| --- | --- |
| F133L | with no effect |

Variants of: B1
Settings: with sf3b1_human SF3B1, O75533

| Variant | effect of a mutation on the interaction |
| --- | --- |
| F133L | with no effect |

Variants of: B1
Settings: with skp2_human SKP2, Q13309

| Variant | effect of a mutation on the interaction |
| --- | --- |
| F133L | with no effect |

Variants of: B1
Settings: with smad1_human SMAD1, Q15797

| Variant | effect of a mutation on the interaction |
| --- | --- |
| F133L | with no effect |

Variants of: B1
Settings: with smca4_human SMARCA4, P51532

| Variant | effect of a mutation on the interaction |
| --- | --- |
| F133L | with no effect |

Variants of: B1
Settings: with snf5_human SMARCB1, Q12824

| Variant | effect of a mutation on the interaction |
| --- | --- |
| F133L | with no effect |

Variants of: B1
Settings: with smo_human SMO

| Variant | effect of a mutation on the interaction |
| --- | --- |
| F133L | with no effect |

Variants of: B1
Settings: with smuf1_human SMURF1, Q9HCE7

| Variant | effect of a mutation on the interaction |
| --- | --- |
| F133L | with no effect |

Variants of: B1
Settings: with socs1_human SOCS1, O15524

| Variant | effect of a mutation on the interaction |
| --- | --- |
| F133L | with no effect |

Variants of: B1
Settings: with sox10_human SOX10, P56693

| Variant | effect of a mutation on the interaction |
| --- | --- |
| F133L | with no effect |

Variants of: B1
Settings: with sox2_human SOX2, P48431

| Variant | effect of a mutation on the interaction |
| --- | --- |
| F133L | with no effect |

Variants of: B1
Settings: with src_human SRC

| Variant | effect of a mutation on the interaction |
| --- | --- |
| F133L | with no effect |

Variants of: B1
Settings: with whr1_human WHR1, P49842

| Variant | effect of a mutation on the interaction |
| --- | --- |
| F133L | with no effect |

Variants of: B1
Settings: with stk38_human STK38, Q15208

| Variant | effect of a mutation on the interaction |
| --- | --- |
| F133L | with no effect |

Variants of: B1
Settings: with eloc_human ELOC

| Variant | effect of a mutation on the interaction |
| --- | --- |
| F133L | with no effect |

Variants of: B1
Settings: with tfe2_human TCF3, P15923

| Variant | effect of a mutation on the interaction |
| --- | --- |
| F133L | with no effect |

Variants of: B1
Settings: with tead1_human TEAD1, P28347

| Variant | effect of a mutation on the interaction |
| --- | --- |
| F133L | with no effect |

Variants of: B1
Settings: with tead3_human TEAD3, Q99594

| Variant | effect of a mutation on the interaction |
| --- | --- |
| F133L | with no effect |

Variants of: B1
Settings: with tead4_human TEAD4, Q15561
Sequence of tead4_human TEAD4, Q15561 (Q15561 whole entry): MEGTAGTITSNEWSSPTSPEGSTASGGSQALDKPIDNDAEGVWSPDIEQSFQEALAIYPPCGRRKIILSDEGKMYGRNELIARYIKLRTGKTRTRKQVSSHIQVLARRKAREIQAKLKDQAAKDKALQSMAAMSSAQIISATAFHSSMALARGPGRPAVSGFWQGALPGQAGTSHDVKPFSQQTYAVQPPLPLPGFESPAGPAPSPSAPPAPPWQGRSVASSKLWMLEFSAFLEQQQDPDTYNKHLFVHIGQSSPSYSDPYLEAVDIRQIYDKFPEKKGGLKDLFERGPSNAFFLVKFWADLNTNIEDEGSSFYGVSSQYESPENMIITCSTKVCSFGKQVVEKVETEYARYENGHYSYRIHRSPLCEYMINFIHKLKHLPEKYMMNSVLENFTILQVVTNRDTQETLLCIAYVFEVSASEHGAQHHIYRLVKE

| Variant | effect of a mutation on the interaction |
| --- | --- |
| F133L | with no effect |

Variants of: B1
Settings: with tet2_human TET2, Q6N021

| Variant | effect of a mutation on the interaction |
| --- | --- |
| F133L | with no effect |

Variants of: B1
Settings: with TMEM106B

| Variant | effect of a mutation on the interaction |
| --- | --- |
| F133L | with no effect |

Variants of: B1
Settings: with tnr14_human TNFRSF14, Q92956

| Variant | effect of a mutation on the interaction |
| --- | --- |
| F133L | with no effect |

Variants of: B1
Settings: with tshr_human TSHR

| Variant | effect of a mutation on the interaction |
| --- | --- |
| F133L | with no effect |

Variants of: B1
Settings: with vegfa_human VEGFA

| Variant | effect of a mutation on the interaction |
| --- | --- |
| F133L | with no effect |

Variants of: B1
Settings: with vhl_human VHL

| Variant | effect of a mutation on the interaction |
| --- | --- |
| F133L | with no effect |

Variants of: B1
Settings: with wee1_human WEE1, P30291

| Variant | effect of a mutation on the interaction |
| --- | --- |
| F133L | with no effect |

Variants of: B1
Settings: with wwtr1_human WWTR1, Q9GZV5

| Variant | effect of a mutation on the interaction |
| --- | --- |
| F133L | with no effect |

Variants of: B1
Settings: with xpo1_human XPO1, O14980

| Variant | effect of a mutation on the interaction |
| --- | --- |
| F133L | with no effect |

Variants of: B1
Settings: with asxl2_human ASXL2, Q76L83
Sequence of asxl2_human ASXL2, Q76L83 (Q76L83 whole entry): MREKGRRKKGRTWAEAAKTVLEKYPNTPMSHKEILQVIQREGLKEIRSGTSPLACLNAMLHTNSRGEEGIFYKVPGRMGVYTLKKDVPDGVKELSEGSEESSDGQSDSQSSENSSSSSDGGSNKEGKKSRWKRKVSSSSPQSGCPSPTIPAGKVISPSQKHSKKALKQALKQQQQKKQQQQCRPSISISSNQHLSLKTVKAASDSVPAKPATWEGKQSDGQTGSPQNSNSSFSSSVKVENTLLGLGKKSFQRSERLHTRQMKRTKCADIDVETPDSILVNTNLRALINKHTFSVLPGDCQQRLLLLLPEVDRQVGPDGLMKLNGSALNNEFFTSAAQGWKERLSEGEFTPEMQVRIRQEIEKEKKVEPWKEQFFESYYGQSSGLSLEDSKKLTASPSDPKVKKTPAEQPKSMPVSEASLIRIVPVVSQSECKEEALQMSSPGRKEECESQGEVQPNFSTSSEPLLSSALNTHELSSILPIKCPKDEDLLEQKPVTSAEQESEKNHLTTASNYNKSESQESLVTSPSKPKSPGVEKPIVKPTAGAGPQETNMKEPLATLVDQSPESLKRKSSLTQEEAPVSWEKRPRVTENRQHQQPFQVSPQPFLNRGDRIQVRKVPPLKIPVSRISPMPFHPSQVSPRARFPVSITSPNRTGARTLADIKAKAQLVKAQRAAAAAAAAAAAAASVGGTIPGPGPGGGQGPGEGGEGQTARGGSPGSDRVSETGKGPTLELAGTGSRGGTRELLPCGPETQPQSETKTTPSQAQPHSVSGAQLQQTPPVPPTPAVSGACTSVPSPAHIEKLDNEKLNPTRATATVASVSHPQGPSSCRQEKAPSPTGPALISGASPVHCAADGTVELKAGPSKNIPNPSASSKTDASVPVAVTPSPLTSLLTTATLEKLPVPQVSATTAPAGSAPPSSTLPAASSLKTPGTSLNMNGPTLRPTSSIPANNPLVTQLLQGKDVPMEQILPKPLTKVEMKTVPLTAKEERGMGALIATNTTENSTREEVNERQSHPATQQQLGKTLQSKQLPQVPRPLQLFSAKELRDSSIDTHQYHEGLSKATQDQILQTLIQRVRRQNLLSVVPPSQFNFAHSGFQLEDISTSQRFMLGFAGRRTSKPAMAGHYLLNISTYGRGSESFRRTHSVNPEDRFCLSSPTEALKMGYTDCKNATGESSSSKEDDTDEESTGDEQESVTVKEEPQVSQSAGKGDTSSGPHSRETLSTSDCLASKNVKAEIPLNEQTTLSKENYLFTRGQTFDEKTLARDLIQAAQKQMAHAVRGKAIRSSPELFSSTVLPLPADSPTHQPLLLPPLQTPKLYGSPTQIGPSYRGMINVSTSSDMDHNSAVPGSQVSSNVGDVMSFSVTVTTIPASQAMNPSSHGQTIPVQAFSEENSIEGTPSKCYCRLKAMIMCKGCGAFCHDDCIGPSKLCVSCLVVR

| Variant | effect of a mutation on the interaction |
| --- | --- |
| F133L | causing an interaction |

Variants of: B1
Settings: with ufo_human AXL

| Variant | effect of a mutation on the interaction |
| --- | --- |
| F133L | causing an interaction |

Variants of: B1
Settings: with birc2_human BIRC2, Q13490
Sequence of birc2_human BIRC2, Q13490 (Q13490 whole entry): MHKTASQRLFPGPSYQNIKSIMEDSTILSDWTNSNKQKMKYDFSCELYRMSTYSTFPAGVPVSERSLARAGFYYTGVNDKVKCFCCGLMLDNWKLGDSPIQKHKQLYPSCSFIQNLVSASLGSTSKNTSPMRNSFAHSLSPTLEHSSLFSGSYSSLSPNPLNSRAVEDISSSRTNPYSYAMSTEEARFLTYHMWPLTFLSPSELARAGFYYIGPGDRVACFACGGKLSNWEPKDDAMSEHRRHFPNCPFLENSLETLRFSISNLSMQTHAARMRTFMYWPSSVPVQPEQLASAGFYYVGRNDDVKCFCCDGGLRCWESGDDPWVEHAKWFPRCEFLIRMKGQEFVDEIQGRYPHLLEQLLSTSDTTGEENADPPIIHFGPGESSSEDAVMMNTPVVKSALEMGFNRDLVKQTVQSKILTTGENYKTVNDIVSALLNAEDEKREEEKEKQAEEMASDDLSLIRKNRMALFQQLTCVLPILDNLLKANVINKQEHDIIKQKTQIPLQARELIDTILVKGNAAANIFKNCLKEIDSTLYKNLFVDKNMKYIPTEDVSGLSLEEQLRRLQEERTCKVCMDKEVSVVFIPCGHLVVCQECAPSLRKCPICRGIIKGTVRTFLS

| Variant | effect of a mutation on the interaction |
| --- | --- |
| F133L | causing an interaction |

Variants of: B1
Settings: with cul4b_human CUL4B

| Variant | effect of a mutation on the interaction |
| --- | --- |
| F133L | causing an interaction |

Variants of: B1
Settings: with jak1_human JAK1, P23458

| Variant | effect of a mutation on the interaction |
| --- | --- |
| F133L | causing an interaction |

Variants of: B1
Settings: with pk3cb_human PIK3CB

| Variant | effect of a mutation on the interaction |
| --- | --- |
| F133L | causing an interaction |

Variants of: B1
Settings: with tsc2_human TSC2, P49815
Sequence of tsc2_human TSC2, P49815 (P49815 whole entry): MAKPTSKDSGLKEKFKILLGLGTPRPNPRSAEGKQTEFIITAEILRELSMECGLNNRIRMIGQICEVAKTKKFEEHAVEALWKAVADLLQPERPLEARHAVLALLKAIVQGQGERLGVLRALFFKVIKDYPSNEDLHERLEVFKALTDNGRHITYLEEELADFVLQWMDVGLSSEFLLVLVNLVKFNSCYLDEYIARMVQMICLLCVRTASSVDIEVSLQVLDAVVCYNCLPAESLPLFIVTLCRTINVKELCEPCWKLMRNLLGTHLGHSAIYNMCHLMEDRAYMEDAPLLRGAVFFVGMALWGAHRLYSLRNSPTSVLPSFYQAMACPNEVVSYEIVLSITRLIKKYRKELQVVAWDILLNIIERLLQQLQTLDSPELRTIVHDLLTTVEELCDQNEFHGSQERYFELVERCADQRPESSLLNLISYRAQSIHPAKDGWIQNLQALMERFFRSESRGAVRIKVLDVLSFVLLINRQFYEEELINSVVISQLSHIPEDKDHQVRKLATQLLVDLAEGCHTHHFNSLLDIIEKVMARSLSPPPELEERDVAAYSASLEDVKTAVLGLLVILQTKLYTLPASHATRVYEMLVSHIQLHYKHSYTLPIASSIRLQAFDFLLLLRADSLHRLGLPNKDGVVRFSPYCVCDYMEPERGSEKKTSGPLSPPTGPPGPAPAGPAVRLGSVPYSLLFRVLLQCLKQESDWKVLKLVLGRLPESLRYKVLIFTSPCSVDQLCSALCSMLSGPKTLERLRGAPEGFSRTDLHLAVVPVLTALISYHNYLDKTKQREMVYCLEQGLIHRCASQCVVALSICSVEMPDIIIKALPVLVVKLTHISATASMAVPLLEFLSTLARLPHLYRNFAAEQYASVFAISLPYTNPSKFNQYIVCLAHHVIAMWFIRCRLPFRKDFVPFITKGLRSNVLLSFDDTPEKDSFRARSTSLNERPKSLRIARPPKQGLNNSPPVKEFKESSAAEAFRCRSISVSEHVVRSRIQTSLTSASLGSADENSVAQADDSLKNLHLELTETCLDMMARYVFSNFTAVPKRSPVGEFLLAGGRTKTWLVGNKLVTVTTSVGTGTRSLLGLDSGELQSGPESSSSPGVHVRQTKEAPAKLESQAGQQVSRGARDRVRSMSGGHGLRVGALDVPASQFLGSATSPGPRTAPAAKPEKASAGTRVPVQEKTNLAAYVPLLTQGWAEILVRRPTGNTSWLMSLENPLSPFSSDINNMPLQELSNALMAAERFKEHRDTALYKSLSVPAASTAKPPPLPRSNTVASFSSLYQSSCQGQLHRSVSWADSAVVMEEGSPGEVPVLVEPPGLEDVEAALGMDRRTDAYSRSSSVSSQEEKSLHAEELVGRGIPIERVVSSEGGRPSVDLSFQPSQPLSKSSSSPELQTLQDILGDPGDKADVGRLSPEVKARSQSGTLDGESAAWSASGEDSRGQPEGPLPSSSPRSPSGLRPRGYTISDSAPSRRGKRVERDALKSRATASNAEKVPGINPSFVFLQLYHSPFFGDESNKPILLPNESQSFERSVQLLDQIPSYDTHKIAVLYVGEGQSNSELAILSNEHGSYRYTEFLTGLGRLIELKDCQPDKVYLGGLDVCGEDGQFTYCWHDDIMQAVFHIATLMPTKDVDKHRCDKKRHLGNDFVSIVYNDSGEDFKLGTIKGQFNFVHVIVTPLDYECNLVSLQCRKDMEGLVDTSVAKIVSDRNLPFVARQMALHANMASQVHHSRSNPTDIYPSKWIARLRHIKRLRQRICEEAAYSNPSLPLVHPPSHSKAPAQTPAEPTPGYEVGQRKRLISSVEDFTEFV

| Variant | effect of a mutation on the interaction |
| --- | --- |
| F133L | causing an interaction |

Variants of: B1
Settings: with birc2_human BIRC2, Q13490
Remark: another data set of the same source

| Variant | effect of a mutation on the interaction |
| --- | --- |
| F133L | increasing interaction strength |

Variants of: B1
Settings: with cblb_human CBLB

| Variant | effect of a mutation on the interaction |
| --- | --- |
| F133L | causing an interaction |

Variants of: B1
Settings: with e2f5_human E2F5, Q15329

| Variant | effect of a mutation on the interaction |
| --- | --- |
| F133L | causing an interaction |
